Read-outs that look alike come from different tables or passages of the source.
Experiments:
[1] = biological target: HR1 construct containing amino acids 153-221 of RSV A2 F protein (Human respiratory syncytial virus, strain A2)
[2] = biological target: SK-epitope: amino acids 195-228 of RSV A2 F protein (C212S) in the inhibitor loop of Ecballium elate (Human respiratory syncytial virus, strain A2 (insert); Ecballium elaterium (scaffold))
[3] = biological target: RSV-F protein (as used in the D25 competition binding assay) (respiratory syncytial virus, strain not stated)
[4] = biological target: RSV A2 F protein on untreated cells (pre-fusion form) (Human respiratory syncytial virus, strain A2) (UniProt P03420)
[5] = biological target: RSV-B F protein from strain 18537 (wild type) (Human respiratory syncytial virus, strain 18537 (subtype B)) (UniProt P13843)
[6] = biological target: RSV A2 F protein on untreated cells (pre-fusion form) (Human respiratory syncytial virus, strain A2) (UniProt P03420); remark: listed apart in the source
[7] = biological target: RSV A2 F protein on untreated cells (pre-fusion form) (Human respiratory syncytial virus, strain A2) (UniProt P03420); experiment: cell-based or functional assay
[8] = biological target: RSV-F protein (as used in the D25 competition binding assay) (respiratory syncytial virus, strain not stated); experiment: competition ELISA on infected cells against biotin-labeled D25 at 100 ng/ml constant, A450 [cont'd) D]
[9] = biological target: MARM A1 F protein (RSV A2 F, N208Y) (Human respiratory syncytial virus, D25-resistant mutant of strain A2) (UniProt P03420)
[10] = biological target: MARM B1 F protein (RSV B 18537 F, N201D) (Human respiratory syncytial virus, D25-resistant mutant of strain 18537) (UniProt P13843)
[11] = biological target: MARM B2 F protein (RSV B 18537 F, L204V) (Human respiratory syncytial virus, D25-resistant mutant of strain 18537) (UniProt P13843)
[12] = biological target: MARM A1 F protein (RSV A2 F, N208Y) (Human respiratory syncytial virus, D25-resistant mutant of strain A2) (UniProt P03420); experiment: cell-based or functional assay
[13] = biological target: MARM B1 F protein (RSV B 18537 F, N201D) (Human respiratory syncytial virus, D25-resistant mutant of strain 18537) (UniProt P13843); experiment: cell-based or functional assay
[14] = biological target: MARM B2 F protein (RSV B 18537 F, L204V) (Human respiratory syncytial virus, D25-resistant mutant of strain 18537) (UniProt P13843); experiment: cell-based or functional assay
[15] = biological target: MARM A1 F protein (RSV A2 F, N208Y) (Human respiratory syncytial virus, D25-resistant mutant of strain A2) (UniProt P03420); remark: listed apart in the source
[16] = biological target: MARM B1 F protein (RSV B 18537 F, N201D) (Human respiratory syncytial virus, D25-resistant mutant of strain 18537) (UniProt P13843); remark: listed apart in the source
[17] = biological target: MARM B2 F protein (RSV B 18537 F, L204V) (Human respiratory syncytial virus, D25-resistant mutant of strain 18537) (UniProt P13843); remark: listed apart in the source
[18] = biological target: RSV-B F protein from strain 18537 (wild type) (Human respiratory syncytial virus, strain 18537 (subtype B)) (UniProt P13843); remark: listed apart in the source
[19] = biological target: RSV-B F protein from strain 18537 (wild type) (Human respiratory syncytial virus, strain 18537 (subtype B)) (UniProt P13843); experiment: cell-based or functional assay

monoclonal antibody D25
Kd [1]: 1.9 nM
Kd [2]: 0.0585 nM
IC50 (read off the curve) [3]: 0.6 µg/mL
IC50 (read off the curve) [4]: 0.1 µg/mL
IC50 (read off the curve) [5]: 0.07 µg/mL
IC50 (read off the curve) [6]: 10 µg/mL
RSV microneutralization assay (antibody concentration able to neutralize) [7]: 1 µg/mL

anti-RSV-F antibody AM22
IC50 (read off the curve) [8]: 2 µg/mL

palivizumab (antibody)
IC50 (read off the curve) [9]: 40 µg/mL
IC50 (read off the curve) [10]: 200 µg/mL
IC50 (read off the curve) [11]: 300 µg/mL
RSV microneutralization assay (antibody concentration able to neutralize) [12]: 100 µg/mL
RSV microneutralization assay (antibody concentration able to neutralize) [13]: 100 µg/mL
RSV microneutralization assay (antibody concentration able to neutralize) [14]: 100 µg/mL

motavizumab (antibody)
IC50 (read off the curve) [15]: 0.1 µg/mL
IC50 (read off the curve) [16]: 0.06 µg/mL
IC50 (read off the curve) [17]: 0.04 µg/mL
IC50 (read off the curve) [18]: 0.1 µg/mL
RSV microneutralization assay (antibody concentration able to neutralize) [12]: < 0.1 µg/mL
RSV microneutralization assay (antibody concentration able to neutralize) [13]: < 0.1 µg/mL
RSV microneutralization assay (antibody concentration able to neutralize) [14]: < 0.1 µg/mL
RSV microneutralization assay (antibody concentration able to neutralize) [19]: < 100 ng/mL
